Measurements from patent US20150056209A1, “PEPTIDE MIMOTOPES TO OXIDATION SPECIFIC EPITOPES” (The Regents of the University of California, priority 2012, published 2015).
Bridges are numbered along the chain shown (N, C = ends). Where no end group is shown, it is not given here.

target: LRO4; test: phage ELISA, coated LRO4

| Binder | OD (binding of phages to LR04) [OD] |
| --- | --- |
| ADPFSPTNRIPLGGGS (peptide, not shown: large carriers) [phage clone M7] | 1.37 |
| ESWTNSWAMYFGGGGS (peptide, not shown: large carriers) [phage clone M2] | 1.17 |
| HRISNYAMELHSGGGS (peptide, not shown: large carriers) [phage clone G4] | 1.45 |
| QSYTNDDVLRISGGGS (peptide, not shown: large carriers) [phage clone M19] | 1.67 |
| DYTNSVSMRYLSGGGS (peptide, not shown: large carriers) [phage clone M36] | 1.47 |
| GWGNKTPSQDVHGGGS (peptide, not shown: large carriers) [phage clone A39] | 1.19 |
| HSLTNTQMTQLSGGGS (peptide, not shown: large carriers) [phage clone M31] | 1.35 |
| ACNNQNMPLCGGGS (peptide, not shown: large carriers, disulfide 2-10; also: C-terminus fused to phage pIII) [phage clone Cb9] | 0.7 |
| ACDWAPHFTCGGGS (peptide, not shown: large carriers, disulfide 2-10; also: C-terminus fused to phage pIII) [phage clone Cb2] | 1 |
| ACNNSHMPLCGGGS (peptide, not shown: large carriers, disulfide 2-10; not fully specified) [phage clones Ca9, Cb3, Ca8, Ca10] | 0.9 |
| ASISNLTLSRFMGGGS (peptide, not shown: large carriers) [phage clone M15] | 1.34 |
| ESWTNSWAHYFGGGGS (peptide, not shown: large carriers) [phage clones A36, B41, M35] | 1.16 |
| HRLTNSEQAALPGGGS (peptide, not shown: large carriers) [phage clones M3, M5] | 1.56 |
| ACNNRNMPLCGGGS (peptide, not shown: large carriers, disulfide 2-10; also: C-terminus fused to phage pIII) [phage clones Ca59, Cb1] | 0.8 |
| ACNNYNMPLCGGGS (peptide, not shown: large carriers, disulfide 2-10; also: C-terminus fused to phage pIII) [phage clone Cb589] | 0.8 |
| ACKNSXQPLCGGGS (peptide, not shown: large carriers, disulfide 2-10; not fully specified; X: residue not identified in the source) [phage clone Ca4] | 0.9 |

target: LRO4; test: competitive phage ELISA, coated LRO4; competitor MDA-LDL 50 µg/mL

| Binder | B/Bo (inhibition of binding to LR04) [B/Bo] |
| --- | --- |
| ADPFSPTNRIPLGGGS (peptide, not shown: large carriers) [phage clone M7] | 0.1 |
| ESWTNSWAMYFGGGGS (peptide, not shown: large carriers) [phage clone M2] | 0.2 |
| HRISNYAMELHSGGGS (peptide, not shown: large carriers) [phage clone G4] | 0.1 |
| QSYTNDDVLRISGGGS (peptide, not shown: large carriers) [phage clone M19] | 0.25 |
| DYTNSVSMRYLSGGGS (peptide, not shown: large carriers) [phage clone M36] | 0.07 |
| GWGNKTPSQDVHGGGS (peptide, not shown: large carriers) [phage clone A39] | 0.19 |
| HSLTNTQMTQLSGGGS (peptide, not shown: large carriers) [phage clone M31] | 0.4 |
| ACNNQNMPLCGGGS (peptide, not shown: large carriers, disulfide 2-10; also: C-terminus fused to phage pIII) [phage clone Cb9] | 0.02 |
| ACDWAPHFTCGGGS (peptide, not shown: large carriers, disulfide 2-10; also: C-terminus fused to phage pIII) [phage clone Cb2] | 0.03 |
| ACNNSHMPLCGGGS (peptide, not shown: large carriers, disulfide 2-10; not fully specified) [phage clones Ca9, Cb3, Ca8, Ca10] | 0.04 |
| ASISNLTLSRFMGGGS (peptide, not shown: large carriers) [phage clone M15] | 0.15 |
| ESWTNSWAHYFGGGGS (peptide, not shown: large carriers) [phage clones A36, B41, M35] | 0.14 |
| HRLTNSEQAALPGGGS (peptide, not shown: large carriers) [phage clones M3, M5] | 0.1 |
| ACNNRNMPLCGGGS (peptide, not shown: large carriers, disulfide 2-10; also: C-terminus fused to phage pIII) [phage clones Ca59, Cb1] | 0.06 |
| ACNNYNMPLCGGGS (peptide, not shown: large carriers, disulfide 2-10; also: C-terminus fused to phage pIII) [phage clone Cb589] | 0.03 |
| ACKNSXQPLCGGGS (peptide, not shown: large carriers, disulfide 2-10; not fully specified; X: residue not identified in the source) [phage clone Ca4] | 0.13 |

target: control isotype anti-KLH IgM Ab (C48-6; BD Bioscience-Pharmingen); test: phage ELISA, coated control IgM

| Binder | OD (binding of phages to control IgM) [OD] |
| --- | --- |
| ADPFSPTNRIPLGGGS (peptide, not shown: large carriers) [phage clone M7] | 0.03 |
| ESWTNSWAMYFGGGGS (peptide, not shown: large carriers) [phage clone M2] | 0.03 |
| HRISNYAMELHSGGGS (peptide, not shown: large carriers) [phage clone G4] | 0.04 |
| QSYTNDDVLRISGGGS (peptide, not shown: large carriers) [phage clone M19] | 0.03 |
| DYTNSVSMRYLSGGGS (peptide, not shown: large carriers) [phage clone M36] | 0.01 |
| GWGNKTPSQDVHGGGS (peptide, not shown: large carriers) [phage clone A39] | 0.05 |
| HSLTNTQMTQLSGGGS (peptide, not shown: large carriers) [phage clone M31] | 0.03 |
| ACNNQNMPLCGGGS (peptide, not shown: large carriers, disulfide 2-10; also: C-terminus fused to phage pIII) [phage clone Cb9] | 0.01 |
| ACDWAPHFTCGGGS (peptide, not shown: large carriers, disulfide 2-10; also: C-terminus fused to phage pIII) [phage clone Cb2] | 0.2 |
| ACNNSHMPLCGGGS (peptide, not shown: large carriers, disulfide 2-10; not fully specified) [phage clones Ca9, Cb3, Ca8, Ca10] | 0.2 |
| ASISNLTLSRFMGGGS (peptide, not shown: large carriers) [phage clone M15] | 0.04 |
| ESWTNSWAHYFGGGGS (peptide, not shown: large carriers) [phage clones A36, B41, M35] | 0.03 |
| HRLTNSEQAALPGGGS (peptide, not shown: large carriers) [phage clones M3, M5] | 0.03 |
| ACNNRNMPLCGGGS (peptide, not shown: large carriers, disulfide 2-10; also: C-terminus fused to phage pIII) [phage clones Ca59, Cb1] | 0.1 |
| ACNNYNMPLCGGGS (peptide, not shown: large carriers, disulfide 2-10; also: C-terminus fused to phage pIII) [phage clone Cb589] | 0.1 |
| ACKNSXQPLCGGGS (peptide, not shown: large carriers, disulfide 2-10; not fully specified; X: residue not identified in the source) [phage clone Ca4] | 0.1 |
